Results reported in PMC10502012, “Molecular basis of TASL recruitment by the peptide/histidine transporter 1, PHT1” (Nature Communications, 2023).

Assays:
[1] = target: chicken PHT1 (purified, wild type) (chicken)
[2] = target: T1, chicken PHT1 L12A/L13A (purified, deglycosylated, cryo-EM sample) (Gallus gallus (chicken), UniProt A0A8V0ZFZ8;A0A8V0Z8V0, point mutant); experiment: thermal shift (nanoDSF); PHT1 alone against PHT1-Sb27 at 0.4 mg/mL in 50 mM HEPES pH 7.5, 100 mM NaCl, 0.02% DDM/0.004% CHS; settings: both partners purified
T1 construct: chicken PHT1 (SLC15A4), full length, 581 residues, with L12A and L13A; Residues 19-569 modelled in the map; also called plasma membrane mutant of PHT1; source: Expi293F GnT1-, transiently transfected, Strep-Tactin purified, treated with EndoH, gel filtration

[3] = target: T1, chicken PHT1 L12A/L13A (purified, …); experiment: cryo-EM structure; PHT1 L12A/L13A with two-fold molar excess of Sb27, EndoH, gel filtration; 10 mM MOPS pH 7.0, 100 mM NaCl, 0.01% DDM/0.002% CHS; settings: both partners purified

chicken PHT1 (purified, wild type) (chicken), sequence (chain, as listed by the source): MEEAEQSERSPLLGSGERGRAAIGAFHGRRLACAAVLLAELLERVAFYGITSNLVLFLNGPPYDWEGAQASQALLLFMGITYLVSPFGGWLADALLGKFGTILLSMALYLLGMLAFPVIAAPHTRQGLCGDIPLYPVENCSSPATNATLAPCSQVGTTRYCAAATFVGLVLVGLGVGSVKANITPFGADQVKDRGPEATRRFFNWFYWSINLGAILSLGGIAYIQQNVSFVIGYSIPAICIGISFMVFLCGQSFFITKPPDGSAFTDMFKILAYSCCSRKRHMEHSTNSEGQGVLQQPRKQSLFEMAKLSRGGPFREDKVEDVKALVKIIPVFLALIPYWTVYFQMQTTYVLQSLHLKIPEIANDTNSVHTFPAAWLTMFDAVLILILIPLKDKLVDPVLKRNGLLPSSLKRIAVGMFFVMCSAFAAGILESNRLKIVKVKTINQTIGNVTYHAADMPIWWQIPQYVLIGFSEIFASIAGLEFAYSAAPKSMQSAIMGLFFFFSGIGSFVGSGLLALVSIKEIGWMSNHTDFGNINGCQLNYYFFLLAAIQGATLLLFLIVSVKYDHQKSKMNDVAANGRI

Row | Binder | binding result [1] | stoichiometry N [3] | increase of the melting temperature of PHT1 [2] [degrees]
1 | 155 (VHH) VHH: QVQLVESGGGLVQAGGSLRLSCAAGGFPVKTSWMRWYRQAPGKEREWVAAINSTGDWTEYADSVKGRFTISRDNAKNTVYLQMNSLKPEDTAVYYCNVKDYGVQTYYYDYWGQGTQVTVSA | binds | – | –
2 | 143 (VHH) VHH: QVQLVESGGGLVQAGGSLRLSCAASGFPVYSAVMYWYRQAPGKEREWVASIGSTGQHTYYADSVKGRFTISRDNAKNTVYLQMNSLKPEDTAVYYCNVKDVGEYMYWYDYWGQGTQVTVSA | binds | – | –

Second part, led by results:

Row | binding result [1] | stoichiometry N [3] | Binder | increase of the melting temperature of PHT1 [2] [degrees]
3 | binds | – | 146 (VHH) VHH: QVQLVESGGGLVQAGGSLRLSCAASGFPVDTTNMHWYRQAPGKEREWVAAIHSSGTYTFYADSVKGRFTISRDNAKNTVYLQMNSLKPEDTAVYYCNVKDKGAHLWWYDYWGQGTQVTVSA | –
4 | – | 2 | sybody 27 (VHH, synthetic nanobody selected from the sybody libraries; Expressed from the pSBinit plasmid; also called Sb27; Sb27a; source: E. coli MC1061 F-, periplasm, purified (Ni-NTA, gel filtration)) VHH: QVQLVESGGGSVQAGGSLRLSCAASGDIETIWYLGWFRQAPGKEREGVAALSTVTGSTYYADSVKGRFTVSLDNAKNTVYLQMNSLKPEDTALYYCAAAYTGWMAPLWQWVYSYWGQGTQVTVSA | 6
